Values joined by “and” are separate entries in the source; they are usually repeats but may differ in a detail not shown here. Identical values can stand only once.
Legend:
206B62-2 = target: T1, 206B62-2; test: SEC binding assay (Superdex 200, normalised A230) of A, B and the mixture AB
T1 chain: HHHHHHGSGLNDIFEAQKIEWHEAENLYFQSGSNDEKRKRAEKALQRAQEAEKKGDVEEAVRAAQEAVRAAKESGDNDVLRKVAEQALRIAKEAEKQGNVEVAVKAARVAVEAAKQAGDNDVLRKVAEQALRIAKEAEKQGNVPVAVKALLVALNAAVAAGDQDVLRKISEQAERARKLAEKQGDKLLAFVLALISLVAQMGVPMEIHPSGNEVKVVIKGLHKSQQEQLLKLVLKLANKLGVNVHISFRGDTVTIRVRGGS
Procedure: (§1) Complexes and individual components were diluted in 20 mM Tris pH 8.0, 100 mM NaCl. After o/n equilibration of the mixtures at room temperature or 4 degrees C., 500 ul of sample was injected onto a Superdex™ 200 10/300 increase GL (dimers, linear assemblies) or Superose™ 6 increase 10/300 GL (symmetric assemblies) (all columns from GE healthcare) using the absorbance at 230 nm or 473 nm (for GFP tagged components) as read-out. Dimers were mixed at monomer concentrations of 5 μM or higher. Trimer and ABCD tetramer mixtures contained 5 μM of the bivalent connector, and 7.5 μM of each terminal cap (lower absolute concentrations with the same ratios were used for some trimers). ABCA tetramer mixtures contained 5 μM per bivalent connector and 15 μM terminal cap. The hexamer mixture contained 3 μM of components C and D, 3.6 μM of B and E, and 4.4 μM of A and F. The branched assembly shown in FIG. 4A contained 2.8 μM of the trivalent connector and 4 μM of each cap. For the exchange experiment shown in FIG. 5A, the ABC trimer was preincubated at concentrations of 6 μM B and 9 μM each of A and C. C′ was then added to reach a final concentration of 2 μM B, 3 μM each of A and C, and 6 μM C′.

LHD206 B62-1 = target: T2, LHD206 B62-1; test: as above
T2 single chain, LHD206 chain B fused to DHR62: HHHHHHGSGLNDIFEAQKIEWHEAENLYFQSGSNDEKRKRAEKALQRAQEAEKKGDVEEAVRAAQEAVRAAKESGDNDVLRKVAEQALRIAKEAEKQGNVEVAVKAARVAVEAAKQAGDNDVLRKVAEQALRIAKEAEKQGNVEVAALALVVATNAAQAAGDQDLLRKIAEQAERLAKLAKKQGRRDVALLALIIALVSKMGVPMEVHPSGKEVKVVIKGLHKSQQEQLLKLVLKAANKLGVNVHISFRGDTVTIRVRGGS
Procedure: as §1

DF206 = target: T3, DF206; test: SEC of mixed components; trimer listed in Table 6
T3 construct: Bivalent connector
T3 chain: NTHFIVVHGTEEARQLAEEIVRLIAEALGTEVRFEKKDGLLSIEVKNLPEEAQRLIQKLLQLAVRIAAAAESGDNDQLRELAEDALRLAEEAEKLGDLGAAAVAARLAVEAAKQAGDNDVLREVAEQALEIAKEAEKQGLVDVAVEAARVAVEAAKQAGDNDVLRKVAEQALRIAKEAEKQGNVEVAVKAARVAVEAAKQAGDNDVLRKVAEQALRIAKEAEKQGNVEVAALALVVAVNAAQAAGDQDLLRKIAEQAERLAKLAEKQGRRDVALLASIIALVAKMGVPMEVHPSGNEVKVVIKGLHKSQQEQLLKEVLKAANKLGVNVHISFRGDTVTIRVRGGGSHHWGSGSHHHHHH

[1] = target: T4, LHD101 chainA, split luciferase reporter construct; test: split luciferase equilibrium titration in E. coli lysate, constant partner at 1 nM; first-named construct read as the titrated one; no unit beside the number, M from the axis '[Titrated] / M'
T4 construct: not shown: N-terminal Strep-tag and sfGFP; GS-linker and smBiT or lgBiT
T4 chain: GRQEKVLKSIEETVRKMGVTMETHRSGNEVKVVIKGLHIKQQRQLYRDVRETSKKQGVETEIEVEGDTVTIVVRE

284B = target: T5, 284B; test: SEC binding assay (Superdex 200, normalised A230) of A, B and the mixture AB
T5 construct: also called LHD284 B; LHD284 chainB
T5 chain: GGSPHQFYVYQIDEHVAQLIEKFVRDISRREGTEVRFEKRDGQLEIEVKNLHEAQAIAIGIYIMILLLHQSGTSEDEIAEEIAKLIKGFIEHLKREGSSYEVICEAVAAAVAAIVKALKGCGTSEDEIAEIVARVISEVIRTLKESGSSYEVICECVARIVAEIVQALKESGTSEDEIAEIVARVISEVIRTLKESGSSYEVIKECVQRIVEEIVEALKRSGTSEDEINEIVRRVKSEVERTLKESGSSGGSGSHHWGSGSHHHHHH
Procedure: as §1

29B53 = target: T6, 29B53; test: SEC titration (Superdex 200, normalised A230) of the complexes 274A53/274B53 and 29A53/29B53
T6 construct: also called LHD29B53
T6 chain: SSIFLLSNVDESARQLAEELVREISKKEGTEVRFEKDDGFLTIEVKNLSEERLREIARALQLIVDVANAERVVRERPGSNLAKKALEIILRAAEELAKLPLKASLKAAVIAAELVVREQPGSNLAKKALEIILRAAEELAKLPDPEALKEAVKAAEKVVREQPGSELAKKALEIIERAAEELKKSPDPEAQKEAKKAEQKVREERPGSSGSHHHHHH

[2] = target: the molecule itself; test: SEC titration of the protomer alone at several injection concentrations (Superdex 200, normalised A230); self-association
101B82 = target: T7, 101B82; test: SEC binding assay (Superdex 200, normalised A230) of A, B and the mixture AB
T7 chain: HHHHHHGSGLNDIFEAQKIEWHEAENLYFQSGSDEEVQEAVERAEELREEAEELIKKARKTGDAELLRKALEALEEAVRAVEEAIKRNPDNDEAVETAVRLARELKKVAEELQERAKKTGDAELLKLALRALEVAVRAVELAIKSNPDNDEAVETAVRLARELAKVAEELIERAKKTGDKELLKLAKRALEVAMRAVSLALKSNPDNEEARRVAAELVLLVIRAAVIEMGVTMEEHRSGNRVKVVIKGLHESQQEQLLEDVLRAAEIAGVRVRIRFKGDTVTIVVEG
Procedure: as §1

LHD101 B8 = target: T8, LHD101 B8; test: as above
T8 single chain, LHD101 chain B fused to DHR8: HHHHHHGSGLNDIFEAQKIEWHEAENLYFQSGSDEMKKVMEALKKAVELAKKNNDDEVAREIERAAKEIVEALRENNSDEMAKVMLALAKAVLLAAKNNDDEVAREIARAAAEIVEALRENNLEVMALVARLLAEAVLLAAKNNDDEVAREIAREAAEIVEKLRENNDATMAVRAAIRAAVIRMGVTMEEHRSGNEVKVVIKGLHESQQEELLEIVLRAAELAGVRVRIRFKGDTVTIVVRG
Procedure: as §1

101B62 = target: T9, 101B62; test: as above
T9 construct: also called LHD101B62
T9 chain: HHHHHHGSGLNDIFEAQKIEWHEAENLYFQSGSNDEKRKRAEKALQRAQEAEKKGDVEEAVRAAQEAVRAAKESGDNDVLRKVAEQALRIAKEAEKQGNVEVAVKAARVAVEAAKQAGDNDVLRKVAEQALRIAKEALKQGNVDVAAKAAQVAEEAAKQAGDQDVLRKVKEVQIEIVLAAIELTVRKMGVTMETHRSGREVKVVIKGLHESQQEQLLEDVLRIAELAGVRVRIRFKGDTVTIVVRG
Procedure: as §1

101B4 = target: T10, 101B4; test: as above
T10 construct: also called LHD101B4
T10 chain: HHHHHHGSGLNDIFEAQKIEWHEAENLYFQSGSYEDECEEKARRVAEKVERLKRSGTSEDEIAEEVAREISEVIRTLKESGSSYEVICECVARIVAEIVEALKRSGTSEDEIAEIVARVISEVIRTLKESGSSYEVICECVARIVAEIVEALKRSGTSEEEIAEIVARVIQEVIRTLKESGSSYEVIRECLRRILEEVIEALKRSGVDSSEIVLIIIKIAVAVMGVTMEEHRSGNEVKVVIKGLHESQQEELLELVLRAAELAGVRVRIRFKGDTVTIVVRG
Procedure: as §1

101B14 = target: T11, 101B14; test: as above
T11 construct: also called LHD101 B14
T11 single chain, LHD101 chain B fused to DHR14: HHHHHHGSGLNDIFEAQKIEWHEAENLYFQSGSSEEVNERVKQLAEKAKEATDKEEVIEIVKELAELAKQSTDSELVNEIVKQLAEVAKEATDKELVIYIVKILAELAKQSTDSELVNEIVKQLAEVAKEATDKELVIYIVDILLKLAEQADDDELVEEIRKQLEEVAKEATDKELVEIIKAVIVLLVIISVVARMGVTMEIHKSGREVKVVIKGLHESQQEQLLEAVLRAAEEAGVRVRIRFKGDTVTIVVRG
Procedure: as §1

LHD101 chainB = target: T12, LHD101 chainB; test: BLI steady-state titration, biotinylated unfused LHD101B on a streptavidin sensor
T12 construct: also called LHD101B
T12 chain: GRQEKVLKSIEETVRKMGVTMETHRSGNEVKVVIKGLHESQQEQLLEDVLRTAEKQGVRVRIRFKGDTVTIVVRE
Procedure: Biolayer interferometry experiments were performed on an OctetRED96 BLI system (ForteBio, Menlo Park, CA). Streptavidin coated biosensors were first equilibrated for at least 10 minutes in Octet buffer (10 mM HEPES pH 7.4, 150 mM NaCl, 3 mM EDTA, 0.05% Surfactant P20) supplemented with 1 mg/ml Bovine Serum Albumin (SigmaAldrich). Enzymatically biotinylated designs were immobilized onto the biosensors by dipping the biosensors into a solution with 10-50 nM protein for 30-120 s. This was followed by dipping in fresh octet buffer to establish a baseline for 120 s. Titration experiments were performed at 25° C. while rotating at 1,000 r.p.m. Association of designs was allowed by dipping biosensors in solutions containing designed protein diluted in octet buffer until equilibrium was approached followed by dissociation by dipping the biosensors into fresh buffer solution in order to monitor the dissociation kinetics. Steady-state and global kinetic fits were performed using the manufacturer's software (Data Analysis 9.1) assuming a 1:1 binding model.

B1: 206A54 (designed binder)
chain: HHHHHHGSGLNDIFEAQKIEWHEAENLYFQSGSTEDERRELEKVARKAIEAAREGNTDEVREQLQRALEIARESGTTEAVKLALEVVARVAIEAARRGNTDAVREALEVALEIARESGTTEAVKLALEVVARVAIEAARRGNTDAVREALAVAVKIALKSGTEEAFRLAKEVIKRVSDEAKKQGNEDAVKEAESFDAAAELILSLLKLFRELHERGTEIVVEVHINGRKTEIEVQGIDKRLLQIILEVIIEEIAREGPDKVEVNVHSGGQTWTFRYGGS
B1: binds (206B62-2); binds (LHD206 B62-1); binds (DF206).

B2: LHD101 chainB, split luciferase reporter construct (designed binder)
chain: GRQEKVLKSIEETVRKMGVTMETHRSGNEVKVVIKGLHESQQEQLLEDVLRTAEKQGVRVRIRFKGDTVTIVVRE
notes: not shown: N-terminal Strep-tag and sfGFP; GS-linker and smBiT or lgBiT
In the case of B2, the Kd [1] is reported as 8 nM and 11 nM.

B3: 284A82 (designed binder)
chain: HHHHHHGSGLNDIFEAQKIEWHEAENLYFQSGSDEEVQEAVERAEELREEAEELIKKARKTGDAELLRKALEALEEAVRAVEEAIKRNPDNDEAVETAVRLARELKKVAEELQERAKKTGDAELLKLALRALEVAVRAVELAIKSNPDNDEAVETAVRLAKELLKVAILLAKRAQETGDKELEKLARRALEVAKRAVELAIKSNPDNKEARILKLLLELAELLIELALRGTIIIVEVHINGERQTKYLILAPVEELLKHLERIEEKIKREGASEVEVKVTSGGTTWTFNIKGS
notes: also called LHD284 A DHR82 N
B3: binds (284B).

B4: 29A53 (designed binder)
chain: TWQWVLINISEEARQLIEKAVRAISKKEGTEVHFEKDDGVLHIRVKNLHEKRAREIHKVAKLILEVAAAERIVRERPGSNLAKKALEIILRAAEELAKADVDAALEAAVRAAEKVVREQPGSNLAKKALEIILRAAEELAKLPDPEALKEAVKAAEKVVREQPGSELAKKALEIIERAAEELKKSPDPEAQKEAKKAEQKVREERPGSSGSHHHHHH
notes: also called LHD29A53
B4: binds (29B53); binds [2].

B5: 101A21 (designed binder)
chain: HHHHHHGSGLNDIFEAQKIEWHEAENLYFQSGSSEKEKVEELAQRIREQLPDTELAREAQELADEARKSDDSEALKVVYLALRIVQQLPDTELAREALELAKEAVKSTDSEKLKVVYLALRVVQQLPDTEEARKALEIAKEAVKADAQILLAIARAVLKMGVEMEVHPSGNEVKVVIKGLHIKQQRQLYRDVREAAKKAGVEVEIEVEGDTVTIVVRE
B5: binds (101B82); binds (LHD101 B8); binds (101B62). B5: binds (101B4); binds (101B14); no binding [2]. B5: binds (LHD101 chainB).

Reference: patent US20240368233A1 (University of Washington, published 2024)
